Data on four molecules can be found in patent US20250017962A1 (US Dept. of Health and Human Services, published 2025).

For one series, the target named is T1, GPC1-hFc (UniProt P35052 24-530, limits assumed).
T1 construct: not shown: human Fc tag (hFc)
T1 sequence (looked up): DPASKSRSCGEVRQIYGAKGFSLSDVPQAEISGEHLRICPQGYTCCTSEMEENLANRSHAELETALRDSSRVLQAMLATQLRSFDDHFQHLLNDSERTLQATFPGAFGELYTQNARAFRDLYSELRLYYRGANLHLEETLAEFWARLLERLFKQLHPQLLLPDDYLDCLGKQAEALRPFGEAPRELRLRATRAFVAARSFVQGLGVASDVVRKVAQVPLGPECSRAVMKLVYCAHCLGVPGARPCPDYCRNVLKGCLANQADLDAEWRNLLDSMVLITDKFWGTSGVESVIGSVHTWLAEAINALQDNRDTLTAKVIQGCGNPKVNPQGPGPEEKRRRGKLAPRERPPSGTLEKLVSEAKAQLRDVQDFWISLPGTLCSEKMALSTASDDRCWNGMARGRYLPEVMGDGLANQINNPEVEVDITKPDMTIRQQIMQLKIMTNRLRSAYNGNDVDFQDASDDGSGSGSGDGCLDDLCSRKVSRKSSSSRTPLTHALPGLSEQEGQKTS
Kind of series: flow cytometry, hFc-tagged protein on CAR-expressing Jurkat cells. On the procedure:
To test antigen specificity and cell binding capacity of the engineered GPC3-targeted CARs, T cell lines (Jurkat) transfected with the CAR constructs were developed and binding to GPC3 tagged with human Fc (GPC3-hFc) was assessed. First, successful transduction (95-98%) of all of the CAR constructs was confirmed using the truncated EGFR marker expressed by the CAR lentivirus. […] All CAR T cells specifically bound to GPC3-hFc (FIG. 1A) and not GPC1-hFc (FIG. 1B) at the same concentrations.
In general terms: Flow cytometry measures light scatter and fluorescence of single cells or particles in a stream.

Series [1] has as its target glypican-3 (GPC3) on HCC cell lines Hep3B, Huh7 and HepG2 (human, UniProt P51654 25-580). Kind of series: cell-based or functional assay.

Sequence of glypican-3 (GPC3) on HCC cell lines Hep3B, Huh7 and HepG2 (P51654 25-580): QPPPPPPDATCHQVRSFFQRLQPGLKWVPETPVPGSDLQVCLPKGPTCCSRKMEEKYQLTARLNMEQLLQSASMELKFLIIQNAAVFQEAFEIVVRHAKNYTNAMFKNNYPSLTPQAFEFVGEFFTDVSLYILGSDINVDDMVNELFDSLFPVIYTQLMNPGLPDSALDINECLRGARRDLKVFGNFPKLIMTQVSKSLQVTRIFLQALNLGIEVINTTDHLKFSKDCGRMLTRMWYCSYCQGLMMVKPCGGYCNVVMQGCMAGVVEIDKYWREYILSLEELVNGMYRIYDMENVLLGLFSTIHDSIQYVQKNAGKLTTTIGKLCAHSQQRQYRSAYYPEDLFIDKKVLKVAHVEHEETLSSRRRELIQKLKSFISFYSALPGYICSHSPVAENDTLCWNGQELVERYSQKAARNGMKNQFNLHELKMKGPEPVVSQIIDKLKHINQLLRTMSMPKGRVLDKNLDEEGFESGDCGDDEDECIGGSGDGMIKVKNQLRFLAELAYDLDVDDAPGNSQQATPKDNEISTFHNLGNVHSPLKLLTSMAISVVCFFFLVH

B1: HN3-IgG4H-CD8TM CAR (other)
chain: HMQVQLVQSGGGLVQPGGSLRLSCAASYFDFDSYEMSWVRQAPGKGLEWIGSIYHSGSTYYNPSLKSRVTISRDNSKNTLYLQMNTLRAEDTATYYCARVNMDRFDYWGQGTLVTVSSTSESKYGPPCPPCPIYIWAPLAGTCGVLLLSLVITKRGRKKLLYIFKQPFMRPVQTTQEEDGCSCRFPEEEEGGCELRVKFSRSADAPAYQQGQNQLYNELNLGRREEYDVLDKRRGRDPEMGGKPRRKNPQEGLYNELQKDKMAEAYSEIGMKGERRRGKGHDGLYQGLSTATKDTYDALHMQALPPR
B1: the binding result with GPC1-hFc was “no binding (tested: 1, 2 and 5 µg/mL)”.

B2: HN3-CD8H-CD28TM CAR (other)
chain: HMQVQLVQSGGGLVQPGGSLRLSCAASYFDFDSYEMSWVRQAPGKGLEWIGSIYHSGSTYYNPSLKSRVTISRDNSKNTLYLQMNTLRAEDTATYYCARVNMDRFDYWGQGTLVTVSSTSTTTPAPRPPTPAPTIASQPLSLRPEACRPAAGGAVHTRGLDFACDFWVLVVVGGVLACYSLLVTVAFIIFWVKRGRKKLLYIFKQPFMRPVQTTQEEDGCSCRFPEEEEGGCELRVKFSRSADAPAYQQGQNQLYNELNLGRREEYDVLDKRRGRDPEMGGKPRRKNPQEGLYNELQKDKMAEAYSEIGMKGERRRGKGHDGLYQGLSTATKDTYDALHMQALPPR
Turning to B2, the binding result with GPC1-hFc was “no binding (tested: 1, 2 and 5 µg/mL)”. The “killing relative to HN3-CD8H-CD8TM CAR T cells” value in series [1] was determined as 40%.

B3: HN3-IgG4H-CD28TM CAR (other)
chain: HMQVQLVQSGGGLVQPGGSLRLSCAASYFDFDSYEMSWVRQAPGKGLEWIGSIYHSGSTYYNPSLKSRVTISRDNSKNTLYLQMNTLRAEDTATYYCARVNMDRFDYWGQGTLVTVSSTSESKYGPPCPPCPFWVLVVVGGVLACYSLLVTVAFIIFWVKRGRKKLLYIFKQPFMRPVQTTQEEDGCSCRFPEEEEGGCELRVKFSRSADAPAYQQGQNQLYNELNLGRREEYDVLDKRRGRDPEMGGKPRRKNPQEGLYNELQKDKMAEAYSEIGMKGERRRGKGHDGLYQGLSTATKDTYDALHMQALPPR
notes: also called HN3-IgG4-CD28TM; HN3-IgGH-CD28TM
Turning to B3, in the series with GPC1-hFc, the binding result was “no binding (tested: 1, 2 and 5 µg/mL)”. Besides, in series [1], the “potency (killing) relative to HN3-CD8H-CD28TM” value lay within 10 to 20%.

B4: hYP7-CD8H-CD8TM CAR (other)
chain: HMEVQLVESGGGLVQPGGSLRLSCAASGFTFNKNAMNWVRQAPGKGLEWVGRIRNKTNNYATYYADSVKARFTISRDDSKNSLYLQMNSLKTEDTAVYYCVAGNSFAYWGQGTLVTVSAGGGGSGGGGSGGGGSDIVMTQSPDSLAVSLGERATINCKSSQSLLYSSNQKNYLAWYQQKPGQPPKLLIYWASSRESGVPDRFSGSGSGTDFTLTISSLQAEDVAVYYCQQYYNYPLTFGQGTKLEIKTSTTTPAPRPPTPAPTIASQPLSLRPEACRPAAGGAVHTRGLDFACDIYIWAPLAGTCGVLLLSLVITKRGRKKLLYIFKQPFMRPVQTTQEEDGCSCRFPEEEEGGCELRVKFSRSADAPAYQQGQNQLYNELNLGRREEYDVLDKRRGRDPEMGGKPRRKNPQEGLYNELQKDKMAEAYSEIGMKGERRRGKGHDGLYQGLSTATKDTYDALHMQALPPR
Take B4: in the series with GPC1-hFc, the binding result was “no binding (tested: 1, 2 and 5 µg/mL)”.
